Assay results published in PMC9482650, “Quantitative fragmentomics allow affinity mapping of interactomes” (Nature Communications, 2022).

T1: APBA2_1, Q99767
T1 sequence (Q99767 563-664, limits assumed, looked up): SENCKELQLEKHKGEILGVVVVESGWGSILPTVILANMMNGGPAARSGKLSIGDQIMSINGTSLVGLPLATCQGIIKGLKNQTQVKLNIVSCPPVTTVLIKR

T2: TJP3_3, O95049
T2 sequence (O95049 375-456, limits assumed, looked up): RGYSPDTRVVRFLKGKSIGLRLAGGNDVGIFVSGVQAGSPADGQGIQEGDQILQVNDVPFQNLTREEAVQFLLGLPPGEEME

T3: DVL3, Q92997
T3 sequence (Q92997 244-331, limits assumed, looked up): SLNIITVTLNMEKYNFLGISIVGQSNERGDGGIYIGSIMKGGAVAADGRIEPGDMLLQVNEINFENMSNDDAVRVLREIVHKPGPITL

T4: SNTA1, Q13424
T4 sequence (Q13424 82-180, limits assumed, looked up): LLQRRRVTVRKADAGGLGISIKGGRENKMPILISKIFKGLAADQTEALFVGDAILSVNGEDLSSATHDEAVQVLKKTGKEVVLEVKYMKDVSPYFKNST

T5: PCLO, Q9Y6V0
T5 sequence (Q9Y6V0 4491-4600, limits assumed, looked up): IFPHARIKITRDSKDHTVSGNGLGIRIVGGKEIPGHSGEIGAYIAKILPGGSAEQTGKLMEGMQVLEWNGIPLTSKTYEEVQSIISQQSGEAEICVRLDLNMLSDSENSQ

T6: CARD11, Q9BXL7
T6 sequence (Q9BXL7 662-765, limits assumed, looked up): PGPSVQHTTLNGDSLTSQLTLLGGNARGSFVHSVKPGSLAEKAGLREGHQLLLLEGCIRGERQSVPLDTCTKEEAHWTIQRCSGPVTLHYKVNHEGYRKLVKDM

T7: MPP6, Q9NZW5
T7 sequence (Q9NZW5 125-219, limits assumed, looked up): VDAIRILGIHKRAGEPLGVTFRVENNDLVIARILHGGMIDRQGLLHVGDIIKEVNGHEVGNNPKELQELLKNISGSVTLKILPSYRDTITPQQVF

T8: TIAM2, Q8IVF5
T8 sequence (Q8IVF5 885-986, limits assumed, looked up): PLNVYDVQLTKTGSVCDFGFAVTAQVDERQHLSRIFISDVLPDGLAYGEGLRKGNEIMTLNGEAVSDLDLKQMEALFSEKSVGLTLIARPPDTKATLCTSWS

T9: ARHGEF11, O15085
T9 sequence (O15085 42-136, limits assumed, looked up): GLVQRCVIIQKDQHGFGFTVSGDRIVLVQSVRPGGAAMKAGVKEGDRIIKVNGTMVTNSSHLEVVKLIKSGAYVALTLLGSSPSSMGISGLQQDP

T10: NHERF3_1, Q5T2W1
T10 sequence (Q5T2W1 4-100, limits assumed, looked up): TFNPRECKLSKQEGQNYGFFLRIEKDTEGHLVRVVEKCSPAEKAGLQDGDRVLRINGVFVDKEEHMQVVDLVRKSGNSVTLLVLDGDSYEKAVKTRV

T11: FRMPD1, Q5SYB0
T11 sequence (Q5SYB0 52-145, limits assumed, looked up): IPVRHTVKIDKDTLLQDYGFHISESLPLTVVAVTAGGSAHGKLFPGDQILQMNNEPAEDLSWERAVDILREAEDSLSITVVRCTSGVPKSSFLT

T12: GRIP1_2, Q9Y3R0
T12 sequence (Q9Y3R0 145-248, limits assumed, looked up): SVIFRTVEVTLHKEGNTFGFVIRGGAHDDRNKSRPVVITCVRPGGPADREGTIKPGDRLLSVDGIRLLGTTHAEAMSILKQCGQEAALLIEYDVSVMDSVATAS

T13: APBA3_1, O96018
T13 sequence (O96018 389-490, limits assumed, looked up): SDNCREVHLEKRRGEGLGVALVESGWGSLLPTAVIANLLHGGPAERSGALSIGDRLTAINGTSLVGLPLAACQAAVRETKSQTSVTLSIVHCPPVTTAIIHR

B1: STK16, O75716 (peptide)
chain: PAPGQHTTQI
B2: PPFIA1, Q13136 (peptide)
chain: DSATVRTYSC

These binders were tested against T1, APBA2_1, Q99767 (assay: holdup assay). Details: plain residues with an end cap or a label only (N-terminal biotin on a linker: ado-ado).
Parameters: key: below the threshold = too weak to quantify, mostly under pKd 3.1 to 4

Question: Which pKd does the source give for B1 here?
Answer: below the threshold

Question: For B2, which pKd is on record?
Answer: below the threshold

What follows are binders tested against NOS1, P29475 (assay: holdup assay). Details: plain residues with an end cap or a label only (N-terminal biotin on a linker: ado-ado).
NOS1, P29475, sequence (P29475 9-101): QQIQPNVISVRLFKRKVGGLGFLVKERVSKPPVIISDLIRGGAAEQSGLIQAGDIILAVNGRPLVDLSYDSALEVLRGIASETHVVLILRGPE
Parameters: key: below the threshold = too weak to quantify, mostly under pKd 3.1 to 4

Question: For B1, which pKd is on record?
Answer: 3.69

Question: How did the pKd turn out when B2 was run?
Answer: below the threshold

Each binder was assayed against GRIP2_6, Q9C0E4 (assay: holdup assay). Details: plain residues with an end cap or a label only (N-terminal biotin on a linker: ado-ado).
GRIP2_6, Q9C0E4, sequence (Q9C0E4 648-740): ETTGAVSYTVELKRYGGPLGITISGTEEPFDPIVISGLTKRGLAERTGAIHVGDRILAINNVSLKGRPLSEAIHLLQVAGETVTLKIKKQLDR
Parameters: key: below the threshold = too weak to quantify, mostly under pKd 3.1 to 4

Question: For B1, which pKd is on record?
Answer: below the threshold

Question: With B2 as the binder, how does the pKd read?
Answer: 5.71

What follows are binders tested against NHERF4_2, Q86UT5 (assay: holdup assay). Details: plain residues with an end cap or a label only (N-terminal biotin on a linker: ado-ado).
NHERF4_2, Q86UT5, sequence (Q86UT5 220-308): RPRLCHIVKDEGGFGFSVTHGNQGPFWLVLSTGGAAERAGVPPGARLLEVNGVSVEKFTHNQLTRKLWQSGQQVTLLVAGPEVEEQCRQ
Parameters: key: below the threshold = too weak to quantify, mostly under pKd 3.1 to 4

Question: Which pKd does the source give for B1 here?
Answer: below the threshold

Question: Which pKd does the source give for B2 here?
Answer: below the threshold

Each binder was assayed against T2, TJP3_3, O95049 (assay: holdup assay). Details: plain residues with an end cap or a label only (N-terminal biotin on a linker: ado-ado).
Parameters: key: below the threshold = too weak to quantify, mostly under pKd 3.1 to 4

Question: Which pKd does the source give for B1 here?
Answer: below the threshold

Question: With B2 as the binder, how does the pKd read?
Answer: below the threshold

What follows are binders tested against Inadl_6, Q8NI35 (assay: holdup assay). Details: plain residues with an end cap or a label only (N-terminal biotin on a linker: ado-ado).
Inadl_6, Q8NI35, sequence (Q8NI35 1058-1167): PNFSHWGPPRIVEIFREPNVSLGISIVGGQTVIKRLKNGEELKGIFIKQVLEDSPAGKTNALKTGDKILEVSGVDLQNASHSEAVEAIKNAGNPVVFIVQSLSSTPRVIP
Parameters: key: below the threshold = too weak to quantify, mostly under pKd 3.1 to 4

Question: For B1, which pKd is on record?
Answer: below the threshold

Question: For B2, which pKd is on record?
Answer: below the threshold

The binders below were run against T3, DVL3, Q92997 (assay: holdup assay). Details: plain residues with an end cap or a label only (N-terminal biotin on a linker: ado-ado).
Parameters: key: below the threshold = too weak to quantify, mostly under pKd 3.1 to 4

Question: With B1 as the binder, how does the pKd read?
Answer: below the threshold

Question: B2 was tested. Which pKd did it give?
Answer: below the threshold

These binders were tested against T4, SNTA1, Q13424 (assay: holdup assay). Details: plain residues with an end cap or a label only (N-terminal biotin on a linker: ado-ado).
Parameters: key: below the threshold = too weak to quantify, mostly under pKd 3.1 to 4

Question: With B1 as the binder, how does the pKd read?
Answer: below the threshold

Question: For B2, which pKd is on record?
Answer: below the threshold

The binders below were run against T5, PCLO, Q9Y6V0 (assay: holdup assay). Details: plain residues with an end cap or a label only (N-terminal biotin on a linker: ado-ado).
Parameters: key: below the threshold = too weak to quantify, mostly under pKd 3.1 to 4

Question: Which pKd does the source give for B1 here?
Answer: below the threshold

Question: For B2, which pKd is on record?
Answer: below the threshold

Each binder was assayed against T6, CARD11, Q9BXL7 (assay: holdup assay). Details: plain residues with an end cap or a label only (N-terminal biotin on a linker: ado-ado).
Parameters: key: below the threshold = too weak to quantify, mostly under pKd 3.1 to 4

Question: Which pKd does the source give for B1 here?
Answer: below the threshold

Question: Which pKd does the source give for B2 here?
Answer: below the threshold

What follows are binders tested against T7, MPP6, Q9NZW5 (assay: holdup assay). Details: plain residues with an end cap or a label only (N-terminal biotin on a linker: ado-ado).
Parameters: key: below the threshold = too weak to quantify, mostly under pKd 3.1 to 4

Question: Which pKd does the source give for B1 here?
Answer: 3.57

Question: How did the pKd turn out when B2 was run?
Answer: below the threshold

Each binder was assayed against T8, TIAM2, Q8IVF5 (assay: holdup assay). Details: plain residues with an end cap or a label only (N-terminal biotin on a linker: ado-ado).
Parameters: key: below the threshold = too weak to quantify, mostly under pKd 3.1 to 4

Question: How did the pKd turn out when B1 was run?
Answer: 3.97

Question: B2 was tested. Which pKd did it give?
Answer: 4.19

The binders below were run against MAGI2_6, Q86UL8 (assay: holdup assay). Details: plain residues with an end cap or a label only (N-terminal biotin on a linker: ado-ado).
MAGI2_6, Q86UL8, sequence (Q86UL8 1141-1229): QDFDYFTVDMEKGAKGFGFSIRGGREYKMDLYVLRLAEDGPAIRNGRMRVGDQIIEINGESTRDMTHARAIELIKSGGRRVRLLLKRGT
Parameters: key: below the threshold = too weak to quantify, mostly under pKd 3.1 to 4

Question: Which pKd does the source give for B1 here?
Answer: below the threshold

Question: With B2 as the binder, how does the pKd read?
Answer: below the threshold

What follows are binders tested against IL16_1, Q14005 (assay: holdup assay). Details: plain residues with an end cap or a label only (N-terminal biotin on a linker: ado-ado).
IL16_1, Q14005, sequence (Q14005 210-306): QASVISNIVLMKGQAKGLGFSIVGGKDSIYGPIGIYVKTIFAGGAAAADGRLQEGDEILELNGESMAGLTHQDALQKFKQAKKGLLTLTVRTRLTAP
Parameters: key: below the threshold = too weak to quantify, mostly under pKd 3.1 to 4

Question: Which pKd does the source give for B1 here?
Answer: below the threshold

Question: Which pKd does the source give for B2 here?
Answer: below the threshold

Each binder was assayed against GRIP2_3, Q9C0E4 (assay: holdup assay). Details: plain residues with an end cap or a label only (N-terminal biotin on a linker: ado-ado).
GRIP2_3, Q9C0E4, sequence (Q9C0E4 238-339): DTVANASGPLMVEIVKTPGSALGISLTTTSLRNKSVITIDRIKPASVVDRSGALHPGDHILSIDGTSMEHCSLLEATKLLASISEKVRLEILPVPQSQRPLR
Parameters: key: below the threshold = too weak to quantify, mostly under pKd 3.1 to 4

Question: With B1 as the binder, how does the pKd read?
Answer: below the threshold

Question: Which pKd does the source give for B2 here?
Answer: below the threshold

These binders were tested against T9, ARHGEF11, O15085 (assay: holdup assay). Details: plain residues with an end cap or a label only (N-terminal biotin on a linker: ado-ado).
Parameters: key: below the threshold = too weak to quantify, mostly under pKd 3.1 to 4

Question: How did the pKd turn out when B1 was run?
Answer: below the threshold

Question: B2 was tested. Which pKd did it give?
Answer: 3.66

Each binder was assayed against T10, NHERF3_1, Q5T2W1 (assay: holdup assay). Details: plain residues with an end cap or a label only (N-terminal biotin on a linker: ado-ado).
Parameters: key: below the threshold = too weak to quantify, mostly under pKd 3.1 to 4

Question: Which pKd does the source give for B1 here?
Answer: 4.26

Question: With B2 as the binder, how does the pKd read?
Answer: 3.77

Each binder was assayed against HTRA2, O43464 (assay: holdup assay). Details: plain residues with an end cap or a label only (N-terminal biotin on a linker: ado-ado).
HTRA2, O43464, sequence (O43464 355-458): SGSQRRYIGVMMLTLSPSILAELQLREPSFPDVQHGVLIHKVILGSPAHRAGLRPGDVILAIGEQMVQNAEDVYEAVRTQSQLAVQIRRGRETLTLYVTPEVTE
Parameters: key: below the threshold = too weak to quantify, mostly under pKd 3.1 to 4

Question: Which pKd does the source give for B1 here?
Answer: below the threshold

Question: B2 was tested. Which pKd did it give?
Answer: 3.66

The binders below were run against T11, FRMPD1, Q5SYB0 (assay: holdup assay). Details: plain residues with an end cap or a label only (N-terminal biotin on a linker: ado-ado).
Parameters: key: below the threshold = too weak to quantify, mostly under pKd 3.1 to 4

Question: With B1 as the binder, how does the pKd read?
Answer: below the threshold

Question: With B2 as the binder, how does the pKd read?
Answer: below the threshold

These binders were tested against DLG5_1, Q8TDM6 (assay: holdup assay). Details: plain residues with an end cap or a label only (N-terminal biotin on a linker: ado-ado).
DLG5_1, Q8TDM6, sequence (Q8TDM6 617-713): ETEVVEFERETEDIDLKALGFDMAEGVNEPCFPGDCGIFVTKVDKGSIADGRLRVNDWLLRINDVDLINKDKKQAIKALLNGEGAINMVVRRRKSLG
Parameters: key: below the threshold = too weak to quantify, mostly under pKd 3.1 to 4

Question: For B1, which pKd is on record?
Answer: below the threshold

Question: For B2, which pKd is on record?
Answer: below the threshold

These binders were tested against T12, GRIP1_2, Q9Y3R0 (assay: holdup assay). Details: plain residues with an end cap or a label only (N-terminal biotin on a linker: ado-ado).
Parameters: key: below the threshold = too weak to quantify, mostly under pKd 3.1 to 4

Question: B1 was tested. Which pKd did it give?
Answer: below the threshold

Question: How did the pKd turn out when B2 was run?
Answer: below the threshold

The binders below were run against PICK1, Q9NRD5 (assay: holdup assay). Details: plain residues with an end cap or a label only (N-terminal biotin on a linker: ado-ado).
PICK1, Q9NRD5, sequence (Q9NRD5 17-115): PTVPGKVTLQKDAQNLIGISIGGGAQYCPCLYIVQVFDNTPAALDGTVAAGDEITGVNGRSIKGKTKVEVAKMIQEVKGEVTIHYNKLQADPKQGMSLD
Parameters: key: below the threshold = too weak to quantify, mostly under pKd 3.1 to 4

Question: B1 was tested. Which pKd did it give?
Answer: 4.07

Question: With B2 as the binder, how does the pKd read?
Answer: 4.15

What follows are binders tested against T13, APBA3_1, O96018 (assay: holdup assay). Details: plain residues with an end cap or a label only (N-terminal biotin on a linker: ado-ado).
Parameters: key: below the threshold = too weak to quantify, mostly under pKd 3.1 to 4

Question: For B1, which pKd is on record?
Answer: below the threshold

Question: For B2, which pKd is on record?
Answer: below the threshold

What follows are binders tested against CASK, O14936 (assay: holdup assay). Details: plain residues with an end cap or a label only (N-terminal biotin on a linker: ado-ado).
CASK, O14936, sequence (O14936 487-570): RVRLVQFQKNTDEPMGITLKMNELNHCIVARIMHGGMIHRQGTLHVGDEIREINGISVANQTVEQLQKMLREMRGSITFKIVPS
Parameters: key: below the threshold = too weak to quantify, mostly under pKd 3.1 to 4

Question: With B1 as the binder, how does the pKd read?
Answer: below the threshold

Question: B2 was tested. Which pKd did it give?
Answer: below the threshold

The binders below were run against ARHGEF12, Q9NZN5-2 (assay: holdup assay). Details: plain residues with an end cap or a label only (N-terminal biotin on a linker: ado-ado).
ARHGEF12, Q9NZN5-2, sequence (Q9NZN5 other isoform, or with tags, fused parts or gaps): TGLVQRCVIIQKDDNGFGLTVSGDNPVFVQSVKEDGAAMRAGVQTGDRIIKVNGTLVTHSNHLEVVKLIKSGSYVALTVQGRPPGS
Parameters: key: below the threshold = too weak to quantify, mostly under pKd 3.1 to 4

Question: B1 was tested. Which pKd did it give?
Answer: 4.38

Question: B2 was tested. Which pKd did it give?
Answer: below the threshold
